Assay results as given in US20100203630A1.

Molecular target: envelope of the SF162 strain of pseudovirus (HIV, SF162) (UniProt P19550)
Assay: cell-based or functional assay

Substance: purified b12-IgG1 (antibody)
- neutralizing 50% inhibitory concentration (IC50), pseudovirus neutralization assay: 0.026 µg/mL
